Assay results taken from patent US20190359687A1 (Bayer, published 2019).

B1: TPP-9900 FVIII-scFv fusion protein (other)
chain: DIQLTQSPSFLSASVGDRVTITCRASSSVRYIYWFQQKPGKAPKLLIYATSFRQSGVPSRFSGSGSGTEYTLTISSLQPEDFATYYCHQRNSFPYTFGQGTKLEIKGGGGSGGGGSGGGGSGGGGSEVQLVQSGAEVKKPGASVKVSCKASGYTFTTYAIHWVRQAPGQGLEWMGYINPSSGYTRYNPKFKGRVTMTRDKSTSTAYMELRSLRSDDTAVYYCWTGTRDYWGQGTTVTVSSGGGSGGGGSGLVPRGSGGGSGGGGSGATRRYYLGAVELSWDYMQSDLGELPVDARFPPRVPKSFPFNTSVVYKKTLFVEFTDHLFNIAKPRPPWMGLLGPTIQAEVYDTVVITLKNMASHPVSLHAVGVSYWKASEGAEYDDQTSQREKEDDKVFPGGSHTYVWQVLKENGPMASDPLCLTYSYLSHVDLVKDLNSGLIGALLVCREGSLAKEKTQTLHKFILLFAVFDEGKSWHSETKNSLMQDRDAASARAWPKMHTVNGYVNRSLPGLIGCHRKSVYWHVIGMGTTPEVHSIFLEGHTFLVRNHRQASLEISPITFLTAQTLLMDLGQFLLFCHISSHQHDGMEAYVKVDSCPEEPQLRMKNNEEAEDYDDDLTDSEMDVVRFDDDNSPSFIQIRSVAKKHPKTWVHYIAAEEEDWDYAPLVLAPDDRSYKSQYLNNGPQRIGRKYKKVRFMAYTDETFKTREAIQHESGILGPLLYGEVGDTLLIIFKNQASRPYNIYPHGITDVRPLYSRRLPKGVKHLKDFPILPGEIFKYKWTVTVEDGPTKSDPRCLTRYYSSFVNMERDLASGLIGPLLICYKESVDQRGNQIMSDKRNVILFSVFDENRSWYLTENIQRFLPNPAGVQLEDPEFQASNIMHSINGYVFDSLQLSVCLHEVAYWYILSIGAQTDFLSVFFSGYTFKHKMVYEDTLTLFPFSGETVFMSMENPGLWILGCHNSDFRNRGMTALLKVSSCDKNTGDYYEDSYEDISAYLLSKNNAIEPRSFSQNDENQSPRSFQKKTRHYFIAAVERLWDYGMSSSPHVLRNRAQSGSVPQFKKVVFQEFTDGSFTQPLYRGELNEHLGLLGPYIRAEVEDNIMVTFRNQASRPYSFYSSLISYEEDQRQGAEPRKNFVKPNETKTYFWKVQHHMAPTKDEFDCKAWAYFSDVDLEKDVHSGLIGPLLVCHTNTLNPAHGRQVTVQEFALFFTIFDETKSWYFTENMERNCRAPCNIQMEDPTFKENYRFHAINGYIMDTLPGLVMAQDQRIRWYLLSMGSNENIHSIHFSGHVFTVRKKEEYKMALYNLYPGVFETVEMLPSKAGIWRVECLIGEHLHAGMSTLFLVYSNKCQTPLGMASGHIRDFQITASGQYGQWAPKLARLHYSGSINAWSTKEPFSWIKVDLLAPMIIHGIKTQGARQKFSSLYISQFIIMYSLDGKKWQTYRGNSTGTLMVFFGNVDSSGIKHNIFNPPIIARYIRLHPTHYSIRSTLRMELMGCDLNSCSMPLGMESKAISDAQITASSYFTNMFATWSPSKARLHLQGRSNAWRPQVNNPKEWLQVDFQKTMKVTGVTTQGVKSLLTSMYVKEFLISSSQDGHQWTLFFQNGKVKVFQGNQDSFTPVVNSLDPPLLTRYLRIHPQSWVHQIALRMEVLGCEAQDLYGGGSGGGGSGLVPRGSGGGSGGGGSGDIQLTQSPSFLSASVGDRVTITCRASSSVRYIYWFQQKPGKAPKLLIYATSFRQSGVPSRFSGSGSGTEYTLTISSLQPEDFATYYCHQRNSFPYTFGQGTKLEIKGGGGSGGGGSGGGGSGGGGSEVQLVQSGAEVKKPGASVKVSCKASGYTFTTYAIHWVRQAPGQGLEWMGYINPSSGYTRYNPKFKGRVTMTRDKSTSTAYMELRSLRSDDTAVYYCWTGTRDYWGQGTTVTVSS
B2: TPP-9976 FVIII-scFv fusion protein (other)
chain: ATRRYYLGAVELSWDYMQSDLGELPVDARFPPRVPKSFPFNTSVVYKKTLFVEFTDHLFNIAKPRPPWMGLLGPTIQAEVYDTVVITLKNMASHPVSLHAVGVSYWKASEGAEYDDQTSQREKEDDKVFPGGSHTYVWQVLKENGPMASDPLCLTYSYLSHVDLVKDLNSGLIGALLVCREGSLAKEKTQTLHKFILLFAVFDEGKSWHSETKNSLMQDRDAASARAWPKMHTVNGYVNRSLPGLIGCHRKSVYWHVIGMGTTPEVHSIFLEGHTFLVRNHRQASLEISPITFLTAQTLLMDLGQFLLFCHISSHQHDGMEAYVKVDSCPEEPQLRMKNNEEAEDYDDDLTDSEMDVVRFDDDNSPSFIQIRSVAKKHPKTWVHYIAAEEEDWDYAPLVLAPDDRSYKSQYLNNGPQRIGRKYKKVRFMAYTDETFKTREAIQHESGILGPLLYGEVGDTLLIIFKNQASRPYNIYPHGITDVRPLYSRRLPKGVKHLKDFPILPGEIFKYKWTVTVEDGPTKSDPRCLTRYYSSFVNMERDLASGLIGPLLICYKESVDQRGNQIMSDKRNVILFSVFDENRSWYLTENIQRFLPNPAGVQLEDPEFQASNIMHSINGYVFDSLQLSVCLHEVAYWYILSIGAQTDFLSVFFSGYTFKHKMVYEDTLTLFPFSGETVFMSMENPGLWILGCHNSDFRNRGMTALLKVSSCDKNTGDYYEDSYEDISAYLLSKNNAIEPRSFSQNGGGGSTGGTGGSSGGGTGSGGGGTGGSGGTDIQLTQSPSFLSASVGDRVTITCRASSSVRYIYWFQQKPGKAPKLLIYATSFRQSGVPSRFSGSGSGTEYTLTISSLQPEDFATYYCHQRNSFPYTFGQGTKLEIKGGGGSGGGGSGGGGSGGGGSEVQLVQSGAEVKKPGASVKVSCKASGYTFTTYAIHWVRQAPGQGLEWMGYINPSSGYTRYNPKFKGRVTMTRDKSTSTAYMELRSLRSDDTAVYYCWTGTRDYWGQGTTVTVSSGGGGDIQLTQSPSFLSASVGDRVTITCRASSSVRYIYWFQQKPGKAPKLLIYATSFRQSGVPSRFSGSGSGTEYTLTISSLQPEDFATYYCHQRNSFPYTFGQGTKLEIKGGGGSGGGGSGGGGSGGGGSEVQLVQSGAEVKKPGASVKVSCKASGYTFTTYAIHWVRQAPGQGLEWMGYINPSSGYTRYNPKFKGRVTMTRDKSTSTAYMELRSLRSDDTAVYYCWTGTRDYWGQGTTVTVSSGGGGDENQSPRSFQKKTRHYFIAAVERLWDYGMSSSPHVLRNRAQSGSVPQFKKVVFQEFTDGSFTQPLYRGELNEHLGLLGPYIRAEVEDNIMVTFRNQASRPYSFYSSLISYEEDQRQGAEPRKNFVKPNETKTYFWKVQHHMAPTKDEFDCKAWAYFSDVDLEKDVHSGLIGPLLVCHTNTLNPAHGRQVTVQEFALFFTIFDETKSWYFTENMERNCRAPCNIQMEDPTFKENYRFHAINGYIMDTLPGLVMAQDQRIRWYLLSMGSNENIHSIHFSGHVFTVRKKEEYKMALYNLYPGVFETVEMLPSKAGIWRVECLIGEHLHAGMSTLFLVYSNKCQTPLGMASGHIRDFQITASGQYGQWAPKLARLHYSGSINAWSTKEPFSWIKVDLLAPMIIHGIKTQGARQKFSSLYISQFIIMYSLDGKKWQTYRGNSTGTLMVFFGNVDSSGIKHNIFNPPIIARYIRLHPTHYSIRSTLRMELMGCDLNSCSMPLGMESKAISDAQITASSYFTNMFATWSPSKARLHLQGRSNAWRPQVNNPKEWLQVDFQKTMKVTGVTTQGVKSLLTSMYVKEFLISSSQDGHQWTLFFQNGKVKVFQGNQDSFTPVVNSLDPPLLTRYLRIHPQSWVHQIALRMEVLGCEAQDLY
notes: also called PPB 7998

How the values were obtained:
[1] = biological target: T1, Cynomolgus monkey glycophorin A on Cynomolgus monkey red blood cells (Cynomolgus monkey); experiment: partition to Cyno RBC, human HemA plasma, 1 min;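 further: FVIII fusion spiked at 1 IU/mL into RBC suspension at whole-blood density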
T1 construct: whole, on cells; also called Cyno GPA; Cyno RBC

[2] = biological target: T1, Cynomolgus monkey glycophorin A on …; experiment: partition to Cyno RBC, human HemA plasma, 5 min;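 further: FVIII fusion spiked at 1 IU/mL into RBC suspension at whole-blood density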
[3] = biological target: T2, human glycophorin A on human red blood cells (human, UniProt P02724 20-150); experiment: partition to human RBC, human HemA plasma, 1 min
T2 construct: whole, on cells; also called human GPA; huGPA
T2 sequence (looked up): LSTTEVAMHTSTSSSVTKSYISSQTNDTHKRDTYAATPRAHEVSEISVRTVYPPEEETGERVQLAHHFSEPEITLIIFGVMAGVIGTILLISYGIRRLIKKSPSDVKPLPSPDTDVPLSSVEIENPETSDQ
Procedure: (§1) The supernatant containing plasma, platelets and white blood cells was discarded and the red blood cell pellet was resuspended in 10 pellet volumes of PBS (50 mM Phosphate buffer, pH7.4, 150 mM NaCl). The red blood cells were then pelleted by slow speed centrifugation and the red blood cells re-suspended in 10 volumes of PBS. This washing step was repeated 4 more times and the red blood cells finally resuspended in a volume of plasma from Hemophilia patients with less than 1% of normal levels of FVIII (GeorgeKing Bio-Medical, Overland Park, Kans.) to generate a total volume equal to the initial blood volume such that the RBC density was equal to that of normal whole blood. BDD and RBC targeted FVIII molecules were then spiked into RBC suspension in HemA plasma at 1 IU/mL, and incubated at room temperature for 2-3 hours with gentle rotation. […] An additional control was performed in which BDD or RBC targeted FVIII molecules were added at 11U/ml into the same human hemophilia A plasma and incubated for 5 minutes and 180 mins. These samples were used to determine the input FVIII activity in the presence of plasma which was used to calculate the percentage of the molecule that was bound to RBC. All plasma samples were then assayed together for FVIII activity using the Coatest SP assay (DiaPharma, Columbus, Ohio). The assay was performed following the manufacturer's instructions in a 96-well plate format. […] The plate was incubated at 37° C. for 10 minutes with shaking between each reagent addition. […] The amount of FVIII activity in the plasma reflects the amount of unbound FVIII. The FVIII activity of the same molecule spiked in to Hemophilia A plasma alone (no RBC) and incubated for 5 minutes was normalized to 100%.

[4] = biological target: T2, human glycophorin A on human red blood …; experiment: partition to human RBC, human HemA plasma, 5 min
Procedure: as §1

[5] = biological target: T1, Cynomolgus monkey glycophorin A on …; experiment: partition to Cyno RBC, human HemA plasma, 15 min;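 further: FVIII fusion spiked at 1 IU/mL into RBC suspension at whole-blood density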
Procedure: To evaluate partition to cynomolgus monkey or human red blood cells, whole blood was draw from Cynomolgus monkey or normal human volunteers in to anticoagulant with 4% sodium citrate (Sigma, St Louis, Mo.). The red blood cells were purified by layering the whole blood on to ficoll followed by low speed centrifugation. The supernatant containing plasma, platelets and white blood cells was discarded and the red blood cell pellet was resuspended in 10 pellet volumes of PBS (50 mM Phosphate buffer, pH7.4, 150 mM NaCl). The red blood cells were then pelleted by slow speed centrifugation and the red blood cells re-suspended in 10 volumes of PBS. This washing step was repeated 4 more times and the red blood cells finally resuspended in a volume of plasma from Hemophilia patients with less than 1% of normal levels of FVIII (GeorgeKing Bio-Medical, Overland Park, Kans.) to generate a total volume equal to the initial blood volume such that the RBC density was equal to that of normal whole blood. BDD and RBC targeted FVIII molecules were then spiked into RBC suspension in HemA plasma at 1 IU/mL, and incubated at room temperature for 2-3 hours with gentle rotation. […] An additional control was performed in which BDD or RBC targeted FVIII molecules were added at 11U/ml into the same human hemophilia A plasma and incubated for 5 minutes and 180 mins. These samples were used to determine the input FVIII activity in the presence of plasma which was used to calculate the percentage of the molecule that was bound to RBC. All plasma samples were then assayed together for FVIII activity using the Coatest SP assay (DiaPharma, Columbus, Ohio). The assay was performed following the manufacturer's instructions in a 96-well plate format. […] The plate was incubated at 37° C. for 10 minutes with shaking between each reagent addition.

[6] = biological target: T1, Cynomolgus monkey glycophorin A on …; experiment: partition to Cyno RBC, human HemA plasma, 30 min;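 further: FVIII fusion spiked at 1 IU/mL into RBC suspension at whole-blood density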
[7] = biological target: T1, Cynomolgus monkey glycophorin A on …; experiment: partition to Cyno RBC, human HemA plasma, 60 min;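 further: FVIII fusion spiked at 1 IU/mL into RBC suspension at whole-blood density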
[8] = biological target: T2, human glycophorin A on human red blood …; experiment: partition to human RBC, human HemA plasma, 15 min
Procedure: as §1

[9] = biological target: T2, human glycophorin A on human red blood …; experiment: partition to human RBC, human HemA plasma, 30 min
Procedure: as §1

[10] = biological target: T2, human glycophorin A on human red blood …; experiment: partition to human RBC, human HemA plasma, 60 min
Procedure: as §1

[11] = biological target: T1, Cynomolgus monkey glycophorin A on …; experiment: partition to Cyno RBC, human HemA plasma, 120 min;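 further: FVIII fusion spiked at 1 IU/mL into RBC suspension at whole-blood density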
[12] = biological target: T2, human glycophorin A on human red blood …; experiment: partition to human RBC, human HemA plasma, 120 min
Procedure: as §1

[13] = biological target: T2, human glycophorin A on human red blood …; experiment: partition to human RBC, human HemA plasma, 120 min; remark: listed apart in the source
Procedure: as §1

Row | Binder | % bound to Cyno RBC [1] | % bound to Cyno RBC [2] | percentage bound to human RBC [3] | percentage bound to human RBC [4] | % bound to Cyno RBC [5] | % bound to Cyno RBC [6] | % bound to Cyno RBC [7] | percentage bound to human RBC [8] | percentage bound to human RBC [9] | percentage bound to human RBC [10] | % bound to Cyno RBC [11] | percentage bound to human RBC [12] | percentage bound to human RBC [13]
1 | B1 | 30.9% | 38.2% | 19.3% | 34.4% | 40.6% | 43.2% | 52.9% | 52% | 57.7% | 66.9% | 55.1% | 71.8% | 71.8%
2 | B2 | 53.4% | 65.7% | 55.2% | 74.3% | 75.6% | 78.1% | 84.5% | 86.6% | 90.4% | 93.5% | 86.8% | 95.2% | 95.2%
